Laboratory results from US20100233189A1.

Target: human TSHR with mutation K209E expressed in CHO cells (human) (UniProt P16473)
Test: cell-based or functional assay

UniProt P16473, sequence (P16473 22-764 K209E/E727D): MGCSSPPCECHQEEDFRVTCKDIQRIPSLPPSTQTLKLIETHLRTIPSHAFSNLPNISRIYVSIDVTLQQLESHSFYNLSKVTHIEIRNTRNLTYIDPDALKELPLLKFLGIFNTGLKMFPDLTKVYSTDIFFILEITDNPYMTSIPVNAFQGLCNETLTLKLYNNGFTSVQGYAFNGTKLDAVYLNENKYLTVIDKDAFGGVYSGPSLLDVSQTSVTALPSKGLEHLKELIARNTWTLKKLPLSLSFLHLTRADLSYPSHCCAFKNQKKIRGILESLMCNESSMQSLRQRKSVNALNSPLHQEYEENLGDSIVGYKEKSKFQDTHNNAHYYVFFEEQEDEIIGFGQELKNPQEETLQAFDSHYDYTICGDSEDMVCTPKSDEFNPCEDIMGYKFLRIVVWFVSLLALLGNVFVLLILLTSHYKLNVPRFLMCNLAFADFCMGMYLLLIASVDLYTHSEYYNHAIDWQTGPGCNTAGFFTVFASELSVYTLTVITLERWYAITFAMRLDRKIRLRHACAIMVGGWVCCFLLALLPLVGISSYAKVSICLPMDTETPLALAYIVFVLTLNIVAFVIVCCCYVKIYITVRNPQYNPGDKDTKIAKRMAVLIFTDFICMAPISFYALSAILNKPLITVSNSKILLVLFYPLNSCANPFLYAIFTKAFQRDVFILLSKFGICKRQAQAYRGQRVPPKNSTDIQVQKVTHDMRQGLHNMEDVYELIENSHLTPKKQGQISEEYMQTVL

M22 stimulating activity (cyclic AMP production in TSHR expressing CHO cells) (% of activity with the wild type TSHR): < 20
B1: M22 Fab (Fab fragment of human monoclonal thyroid stimulating autoantibody hMAb TSHR1) (Fab, from another filing, V domains shown)
VH: QVQLVQSGAEVKKPGESLKISCRGSGYRFTSYWINWVRQLPGKGLEWMGRIDPTDSYTNYSPSFKGHVTVSADKSINTAYLQWSSLKASDTGMYYCARLEPGYSSTWSVNWGQGTLVTVSS
VL: LTVLTQPPSVSGAPRQRVTISCSGNSSNIGNNAVNWYQQLPGKAPKLLIYYDDQLPSGVSDRFSGSRSGTSASLAIRGLQSEDEADYYCTSWDDSLDSQLFGGGTRLTVLG
